# From article doi:10.1101/200493
# Like-named read-outs stand apart in the source and are kept apart here.
# Legend:
# [1] = molecular target: His-tagged human recombinant αVβ3 integrin (human) (UniProt P06756); experiment: BLI
# [2] = molecular target: His-tagged human recombinant αVβ3 integrin (human) (UniProt P06756); experiment: BLI; remark: listed apart in the source
# Sequence of His-tagged human recombinant αVβ3 integrin (human) (P06756 31-1048, chain 1 of 2): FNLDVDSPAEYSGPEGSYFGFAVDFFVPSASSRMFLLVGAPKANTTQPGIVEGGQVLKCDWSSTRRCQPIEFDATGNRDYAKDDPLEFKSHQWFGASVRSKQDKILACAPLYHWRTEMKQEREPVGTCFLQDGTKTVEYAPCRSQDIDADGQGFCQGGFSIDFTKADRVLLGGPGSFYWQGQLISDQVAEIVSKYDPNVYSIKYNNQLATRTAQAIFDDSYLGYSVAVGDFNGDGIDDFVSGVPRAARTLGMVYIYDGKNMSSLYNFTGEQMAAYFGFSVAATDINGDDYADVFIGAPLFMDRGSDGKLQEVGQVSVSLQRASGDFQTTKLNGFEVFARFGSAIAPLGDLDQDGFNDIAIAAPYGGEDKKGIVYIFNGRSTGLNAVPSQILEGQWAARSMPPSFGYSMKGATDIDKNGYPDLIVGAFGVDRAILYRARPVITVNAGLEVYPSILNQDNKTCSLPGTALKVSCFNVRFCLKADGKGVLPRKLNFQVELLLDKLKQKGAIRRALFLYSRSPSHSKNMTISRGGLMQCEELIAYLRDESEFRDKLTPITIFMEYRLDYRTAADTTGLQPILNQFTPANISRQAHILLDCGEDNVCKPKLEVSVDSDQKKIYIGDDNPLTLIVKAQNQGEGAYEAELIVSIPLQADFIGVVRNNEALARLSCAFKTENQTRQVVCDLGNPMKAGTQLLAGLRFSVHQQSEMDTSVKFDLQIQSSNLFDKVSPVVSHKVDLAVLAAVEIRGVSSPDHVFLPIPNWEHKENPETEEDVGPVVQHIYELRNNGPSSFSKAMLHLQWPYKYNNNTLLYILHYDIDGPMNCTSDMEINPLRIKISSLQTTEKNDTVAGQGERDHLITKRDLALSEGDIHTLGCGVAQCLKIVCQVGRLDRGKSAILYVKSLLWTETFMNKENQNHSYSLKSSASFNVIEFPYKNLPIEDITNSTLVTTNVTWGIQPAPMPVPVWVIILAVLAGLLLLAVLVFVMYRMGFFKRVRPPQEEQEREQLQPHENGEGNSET
# Sequence of His-tagged human recombinant αVβ3 integrin (human) (P05106 27-718, chain 2 of 2, further chain): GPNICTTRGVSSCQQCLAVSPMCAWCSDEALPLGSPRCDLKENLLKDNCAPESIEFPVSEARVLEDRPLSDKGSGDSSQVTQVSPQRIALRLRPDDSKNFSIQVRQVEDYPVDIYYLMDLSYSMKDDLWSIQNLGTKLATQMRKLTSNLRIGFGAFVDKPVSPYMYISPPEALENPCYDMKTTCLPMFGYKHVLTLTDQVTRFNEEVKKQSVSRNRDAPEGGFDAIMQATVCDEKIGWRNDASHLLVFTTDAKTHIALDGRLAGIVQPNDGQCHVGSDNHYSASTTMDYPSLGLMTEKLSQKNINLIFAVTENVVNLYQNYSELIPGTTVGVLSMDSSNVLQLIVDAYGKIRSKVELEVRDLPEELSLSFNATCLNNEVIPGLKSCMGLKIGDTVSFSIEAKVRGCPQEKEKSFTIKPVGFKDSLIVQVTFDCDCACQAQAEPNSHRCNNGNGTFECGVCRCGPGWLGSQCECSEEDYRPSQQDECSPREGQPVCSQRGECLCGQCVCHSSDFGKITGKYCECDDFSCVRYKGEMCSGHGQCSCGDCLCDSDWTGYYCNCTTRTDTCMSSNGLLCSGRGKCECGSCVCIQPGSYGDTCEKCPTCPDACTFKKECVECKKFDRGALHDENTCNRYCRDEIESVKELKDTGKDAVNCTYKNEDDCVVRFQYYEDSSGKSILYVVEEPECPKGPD
# Sequence of human vitronectin (P04004 20-478): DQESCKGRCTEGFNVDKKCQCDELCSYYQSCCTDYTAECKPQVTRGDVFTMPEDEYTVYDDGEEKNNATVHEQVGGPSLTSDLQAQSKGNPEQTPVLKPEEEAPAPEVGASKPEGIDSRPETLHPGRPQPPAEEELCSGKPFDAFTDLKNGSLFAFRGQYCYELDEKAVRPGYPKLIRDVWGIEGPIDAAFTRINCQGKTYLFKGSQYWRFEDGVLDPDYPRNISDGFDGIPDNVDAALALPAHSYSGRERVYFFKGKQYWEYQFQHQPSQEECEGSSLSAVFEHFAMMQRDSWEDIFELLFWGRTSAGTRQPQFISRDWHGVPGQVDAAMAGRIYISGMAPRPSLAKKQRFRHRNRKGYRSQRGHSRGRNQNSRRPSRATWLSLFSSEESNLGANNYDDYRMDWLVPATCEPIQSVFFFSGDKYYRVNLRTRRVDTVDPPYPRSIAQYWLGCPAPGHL
Kd [1] [nM],Kd [2] [nM],Substance
54,,human plasma fibronectin (ligand)
< 0.001,303,human vitronectin (from UniProt P04004 20-478) (ligand)
8.15,,native human fibrinogen (from UniProt P02671 36-866; P02675 45-491; P02679 27-453) (ligand)
